Data reported in article PMC3985186, “The influence of dynein processivity control, MAPs, and microtubule ends on directional movement of a localising mRNA” (eLife, 2014).

Experiments:
[1] = target: the molecule itself; experiment: SEC; gel filtration of purified kin401T99N:mGFP before concentration
[2] = target: the molecule itself; experiment: stepwise photobleaching (TIR microscopy); dilute solution (1 pM) of kin401T99N:mGFP added to imaging chambers with HiLyte 647-labelled microtubules bound to the glass, no ATP, oxygen scavenging agent

B1: GFP-labelled Drosophila kinesin-1 (aa 1-401) rigor mutant, Kin401T99N:mGFP (domain or fragment)
chain: not shown
notes: The construct without the mutation was a gift from T Surrey; also called rigor kinesin; GFP-labelled rigor kinesin; source: bacteria (BL21(DE3) strain), dimeric fraction purified using gel filtration; not shown: monomeric GFP, C-terminal, kept
- stoichiometry N [1]: 2
- stoichiometry N [2]: ≤ 2
